Where a chain is given by its changes, count along the chain named. “And” between values parts separate entries of the source, which are not always exact repeats. Equal entries are not always repeated. Where two headings read alike, the source gives them in different places. Blank lines part the entries; values can stand above or below the binder they belong to.
Assays:
[1] = molecular target: T1, human PDL1-Fc fusion protein (human); test: ELISA, human PDL1-Fc coated 200 ng/well, anti-His HRP
T1 construct: also called human PDL1-Fc recombinant protein

[2] = molecular target: T1, human PDL1-Fc fusion protein; test: BLI (ForteBIO Octet QKe), PDL1-Fc loaded, analyte 100 nM
[3] = molecular target: T1, human PDL1-Fc fusion protein; test: ELISA, human PDL1-Fc coated 200 ng/well, anti-His HRP; remark: listed apart in the source
[4] = molecular target: T1, human PDL1-Fc fusion protein; test: as above; remark: listed apart in the source
[5] = molecular target: T2, human PD-L1 expressed on Raji cells (human, UniProt Q9NZQ7 19-290); test: flow cytometry competition on Raji-PDL1 cells, competitor PD1-Fc
T2 construct: whole, on cells; also called Raji-PDL1; PDL1 protein expressed on Raji cells

[6] = molecular target: T3, recombinant protein PD-L1-His (human, UniProt Q9NZQ7 19-238); test: competitive ELISA, PDL1-his coated, competitor PD1-Fc 50 µg/mL
T3 construct: also called PD-L1-his fusion protein; human PDL1-his protein

[7] = molecular target: T1, human PDL1-Fc fusion protein; test: ELISA, human PDL1-Fc coated 200 ng/well, anti-His HRP; remark: listed apart in the source
[8] = molecular target: T1, human PDL1-Fc fusion protein; test: as above; remark: listed apart in the source

T3 sequence (Q9NZQ7 19-238 limits assumed): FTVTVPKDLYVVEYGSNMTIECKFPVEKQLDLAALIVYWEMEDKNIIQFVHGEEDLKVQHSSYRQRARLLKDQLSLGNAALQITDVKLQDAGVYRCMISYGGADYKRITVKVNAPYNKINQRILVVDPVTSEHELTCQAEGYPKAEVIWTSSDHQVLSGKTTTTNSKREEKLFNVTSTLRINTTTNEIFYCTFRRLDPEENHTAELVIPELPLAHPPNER
T2 sequence (Q9NZQ7 19-290): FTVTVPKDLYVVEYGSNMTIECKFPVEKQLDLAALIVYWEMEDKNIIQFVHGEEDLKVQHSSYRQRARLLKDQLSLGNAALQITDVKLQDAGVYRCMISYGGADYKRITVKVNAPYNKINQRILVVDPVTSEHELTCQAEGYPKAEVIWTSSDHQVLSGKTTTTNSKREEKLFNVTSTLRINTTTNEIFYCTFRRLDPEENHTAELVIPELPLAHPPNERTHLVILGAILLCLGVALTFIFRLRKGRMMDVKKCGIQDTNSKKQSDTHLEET
T1 sequence (chain, as listed by the source limits assumed): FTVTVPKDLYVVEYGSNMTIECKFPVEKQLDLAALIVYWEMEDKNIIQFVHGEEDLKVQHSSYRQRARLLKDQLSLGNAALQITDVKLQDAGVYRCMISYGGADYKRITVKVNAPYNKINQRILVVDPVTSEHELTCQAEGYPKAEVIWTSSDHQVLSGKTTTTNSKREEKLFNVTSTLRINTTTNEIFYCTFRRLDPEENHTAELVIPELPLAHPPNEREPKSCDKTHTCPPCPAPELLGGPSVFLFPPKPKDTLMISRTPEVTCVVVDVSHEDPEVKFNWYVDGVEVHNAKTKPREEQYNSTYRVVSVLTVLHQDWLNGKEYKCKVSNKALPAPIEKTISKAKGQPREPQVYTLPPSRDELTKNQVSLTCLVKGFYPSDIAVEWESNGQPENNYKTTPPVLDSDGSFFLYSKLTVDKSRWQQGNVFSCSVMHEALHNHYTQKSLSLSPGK

B1: Fusion 2 (other, murine)
chain 1: RVIPVSGPARCLSQSRNLLKTTDDMVKTAREKLKHYSCTAEDIDHEDITRDQTSTLKTCLPLELHKNESCLATRETSSTTRGSCLPPQKTSLMMTLCLGSIYEDLKMYQTEFQAINAALQNHNHQQIILDKGMLVAIDELMQSLNHNGETLRQKPPVGEADPYRVKMKLCILLHAFSTRVVTINRVMGYLSSAHHHHHH
chain 2: MWELEKDVYVVEVDWTPDAPGETVNLTCDTPEEDDITWTSDQRHGVIGSGKTLTITVKEFLDAGQYTCHKGGETLSHSHLLLHKKENGIWSTEILKNFKNKTFLKCEAPNYSGRFTCSWLVQRNMDLKFNIKSSSSSPDSRAVTCGMASLSAEKVTLDQRDYEKYSVSCQEDVTCPTAEETLPIELALEARQQNKYENYSTSFFIRDIIKPDPPKNLQMKPLKNSQVEVSWEYPDSWSTPHSYFSLKFFVRIQRKKEKMKETEEGCNQKGAFLVEKTSTEVQCKGGNVCVQAQDRYYNSSCSKWACVPCRVRSGGGGSGGGGSGGGGSQVQLQESGGGLVQPGGSLTLSCAASGFTVSNSAVSWARQAPGKGLEWVSLIDSNRNTVYAQSVRGRFTISRDNVKNTVYLQMNSLKPEDTAVYYCAKGIWGSTLTGQGTQVTVSS
notes: PDL1-1 nanobody fused with murine IL-12; two plasmids co-transfected 1:1; also called mP35-6his + mP40-P1
EC50 [1]: 4.1 µg/mL and 54.3 nM

B2: Fusion 4 (other, murine)
chain 1: B1 chain 1
chain 2: QVQLQESGGGLVQPGGSLTLSCAASGFTVSNSAVSWARQAPGKGLEWVSLIDSNRNTVYAQSVRGRFTISRDNVKNTVYLQMNSLKPEDTAVYYCAKGIWGSTLTGQGTQVTVSSGGGGSGGGGSGGGGSMWELEKDVYVVEVDWTPDAPGETVNLTCDTPEEDDITWTSDQRHGVIGSGKTLTITVKEFLDAGQYTCHKGGETLSHSHLLLHKKENGIWSTEILKNFKNKTFLKCEAPNYSGRFTCSWLVQRNMDLKFNIKSSSSSPDSRAVTCGMASLSAEKVTLDQRDYEKYSVSCQEDVTCPTAEETLPIELALEARQQNKYENYSTSFFIRDIIKPDPPKNLQMKPLKNSQVEVSWEYPDSWSTPHSYFSLKFFVRIQRKKEKMKETEEGCNQKGAFLVEKTSTEVQCKGGNVCVQAQDRYYNSSCSKWACVPCRVRS
notes: PDL1-1 nanobody fused with murine IL-12; two plasmids co-transfected 1:1; also called mP35-6his + P1-mP40
EC50 [1]: 0.75 µg/mL and 9.91 nM

B3: PDL1-1v15 (VHH)
VHH: QVQLVESGGGLVKPGGSLRLSCAASGFTVSNSAVSWARQAPGKGLEWVSLIDSNRNTVYAQSVRGRFTISRDNAKNTVYLQMNSLRAEDTAVYYCAKGIWGSTLWGQGTTVTVSS
notes: Humanized PDL1-1, His-tagged
Kd [2]: 10.8 nM | EC50 [3]: 0.0432 µg/mL

B4: PDL1-1v18 (VHH)
VHH: B3 VHH with T77S, W105T
notes: Humanized PDL1-1, His-tagged
EC50 [4]: 0.0182 µg/mL | IC50 [5]: 0.694 µg/mL | IC50 [6]: 5.22 µg/mL | Kd [2]: 4.16 nM

B10: PDL1-1v12 (VHH)
VHH: B3 VHH with K13Q, T77S
notes: Humanized PDL1-1, His-tagged
EC50 [4]: 1.24 µg/mL | Kd [2]: 389 nM

B12: PDL1-1v10 (VHH)
VHH: B3 VHH with Q1E, V5L, K13Q, D52A, A74S
notes: Humanized PDL1-1, His-tagged
EC50 [8]: ~110 µg/mL | Kd [2]: 30.5 nM

B15: PDL1-1v4 (VHH)
VHH: B3 VHH with Q1E, V5Q, K13Q, A74S
notes: Humanized PDL1-1, His-tagged
EC50 [7]: 4 µg/mL | Kd [2]: 1320 nM

B16: PDL1-1v20 (VHH)
VHH: B3 VHH with D52A, T77S
notes: Humanized PDL1-1, His-tagged
EC50 [4]: 0.875 µg/mL | Kd [2]: 32.5 nM

B22: Fusion 1 (other, murine)
chain 1: RVIPVSGPARCLSQSRNLLKTTDDMVKTAREKLKHYSCTAEDIDHEDITRDQTSTLKTCLPLELHKNESCLATRETSSTTRGSCLPPQKTSLMMTLCLGSIYEDLKMYQTEFQAINAALQNHNHQQIILDKGMLVAIDELMQSLNHNGETLRQKPPVGEADPYRVKMKLCILLHAFSTRVVTINRVMGYLSSAGGGGSGGGGSGGGGSQVQLQESGGGLVQPGGSLTLSCAASGFTVSNSAVSWARQAPGKGLEWVSLIDSNRNTVYAQSVRGRFTISRDNVKNTVYLQMNSLKPEDTAVYYCAKGIWGSTLTGQGTQVTVSSHHHHHHHH
chain 2: MWELEKDVYVVEVDWTPDAPGETVNLTCDTPEEDDITWTSDQRHGVIGSGKTLTITVKEFLDAGQYTCHKGGETLSHSHLLLHKKENGIWSTEILKNFKNKTFLKCEAPNYSGRFTCSWLVQRNMDLKFNIKSSSSSPDSRAVTCGMASLSAEKVTLDQRDYEKYSVSCQEDVTCPTAEETLPIELALEARQQNKYENYSTSFFIRDIIKPDPPKNLQMKPLKNSQVEVSWEYPDSWSTPHSYFSLKFFVRIQRKKEKMKETEEGCNQKGAFLVEKTSTEVQCKGGNVCVQAQDRYYNSSCSKWACVPCRVRS
notes: PDL1-1 nanobody fused with murine IL-12; two plasmids co-transfected 1:1; also called mP35-P1-8his + mP40
EC50 [1]: 0.373 µg/mL and 4.93 nM

B23: Fusion 3 (other, murine)
chain 1: QVQLQESGGGLVQPGGSLTLSCAASGFTVSNSAVSWARQAPGKGLEWVSLIDSNRNTVYAQSVRGRFTISRDNVKNTVYLQMNSLKPEDTAVYYCAKGIWGSTLTGQGTQVTVSSGGGGSGGGGSGGGGSRVIPVSGPARCLSQSRNLLKTTDDMVKTAREKLKHYSCTAEDIDHEDITRDQTSTLKTCLPLELHKNESCLATRETSSTTRGSCLPPQKTSLMMTLCLGSIYEDLKMYQTEFQAINAALQNHNHQQIILDKGMLVAIDELMQSLNHNGETLRQKPPVGEADPYRVKMKLCILLHAFSTRVVTINRVMGYLSSAHHHHHHHH
chain 2: B22 chain 2
notes: PDL1-1 nanobody fused with murine IL-12; two plasmids co-transfected 1:1; also called P1-mP35-8his + mP40
EC50 [1]: 0.251 µg/mL and 3.33 nM

Continued, values first:

Kd [2]: 14.3 nM | EC50 [3]: 0.0629 µg/mL
B5: PDL1-1v16 (VHH)
VHH: B3 VHH with T77S, R86K
notes: Humanized PDL1-1, His-tagged

EC50 [4]: 0.0484 µg/mL | IC50 [5]: 2.59 µg/mL | IC50 [6]: 18.8 µg/mL | Kd [2]: 9.86 nM
B6: PDL1-1v19 (VHH)
VHH: B3 VHH with T77S, T110Q
notes: Humanized PDL1-1, His-tagged

EC50 [4]: 0.0664 µg/mL | Kd [2]: 10.2 nM
B7: PDL1-1v17 (VHH)
VHH: B3 VHH with T77S, A87P
notes: Humanized PDL1-1, His-tagged

IC50 [5]: 2.48 µg/mL | IC50 [6]: 31.1 µg/mL | Kd [2]: 5.86 nM | EC50 [3]: 0.02 µg/mL
B8: PDL1-1v11 (VHH)
VHH: B3 VHH with V5Q, T77S
notes: Humanized PDL1-1, His-tagged

EC50 [4]: 0.0591 µg/mL | Kd [2]: 14.3 nM | EC50 [3]: 0.0423 µg/mL
B9: PDL1-1v2 (VHH)
VHH: B3 VHH with T77S
notes: Humanized PDL1-1, His-tagged

EC50 [7]: 0.0251 µg/mL | EC50 [8]: 0.0275 µg/mL | Kd [2]: 13.1 nM
B11: PDL1-1v1 (VHH)
VHH: B3 VHH with Q1E, V5L, K13Q, A74S
notes: Humanized PDL1-1, His-tagged, from 293-F

IC50 [5]: 4.58 µg/mL | IC50 [6]: 37.1 µg/mL | Kd [2]: 7.37 nM | EC50 [3]: 0.0342 µg/mL
B13: PDL1-1v14 (VHH)
VHH: B3 VHH with A74V, T77S
notes: Humanized PDL1-1, His-tagged

IC50 [5]: 0.458 µg/mL | IC50 [6]: 5.58 µg/mL | EC50 [8]: 0.0108 µg/mL | Kd [2]: 5.9 nM
B14: PDL1-1v8 (VHH)
VHH: B3 VHH with Q1E, V5L, K13Q, A74S, W105T
notes: Humanized PDL1-1, His-tagged

EC50 [8]: 0.0336 µg/mL | Kd [2]: 18.5 nM
B17: PDL1-1v3 (VHH)
VHH: B3 VHH with V5L, K13Q, A74S
notes: Humanized PDL1-1, His-tagged

EC50 [8]: 0.0505 µg/mL | Kd [2]: 22.1 nM
B18: PDL1-1v6 (VHH)
VHH: B3 VHH with Q1E, V5L, K13Q, A74S, R86K
notes: Humanized PDL1-1, His-tagged

EC50 [4]: 0.0461 µg/mL | Kd [2]: 11.4 nM
B19: PDL1-1v13 (VHH)
VHH: B3 VHH with R19T, T77S
notes: Humanized PDL1-1, His-tagged

EC50 [7]: 0.026 µg/mL | Kd [2]: 12.1 nM
B20: PDL1-1v9 (VHH)
VHH: B3 VHH with Q1E, V5L, K13Q, A74S, T110Q
notes: Humanized PDL1-1, His-tagged

EC50 [7]: 0.028 µg/mL | Kd [2]: 10.9 nM
B21: PDL1-1v7 (VHH)
VHH: B3 VHH with Q1E, V5L, K13Q, A74S, A87P
notes: Humanized PDL1-1, His-tagged

Reference: patent EP4703382A1 (Kanglitai Biomedical (Qingdao) Co., Ltd., dated 2026)
